Km data for one protein are collected here from patent US20120213763A1 (COUNCIL OF SCIENTIFIC AND INDUSTRIAL RESEARCH, published 2012).

Data set [1] concerns the target T1, PEGylated SK D96C (SEQ ID NO 31).
T1 chain: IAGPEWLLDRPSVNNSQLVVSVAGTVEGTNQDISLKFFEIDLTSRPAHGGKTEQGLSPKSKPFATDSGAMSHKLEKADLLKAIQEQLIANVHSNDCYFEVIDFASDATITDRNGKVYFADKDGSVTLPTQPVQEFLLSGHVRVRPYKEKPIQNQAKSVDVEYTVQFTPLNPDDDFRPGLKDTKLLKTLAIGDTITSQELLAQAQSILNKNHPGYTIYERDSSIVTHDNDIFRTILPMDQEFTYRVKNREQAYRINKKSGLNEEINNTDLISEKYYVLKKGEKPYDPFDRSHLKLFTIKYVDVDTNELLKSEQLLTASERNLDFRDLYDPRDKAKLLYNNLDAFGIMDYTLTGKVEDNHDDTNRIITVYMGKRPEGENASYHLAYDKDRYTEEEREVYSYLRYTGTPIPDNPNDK

Data set [2] concerns the target T2, PEGylated SK L179C (SEQ ID NO 41).
T2 chain: T1 chain with C96D, L179C

The target of data set [3] is T3, PEGylated SK L260C (SEQ ID NO 50).
T3 chain: T1 chain with C96D, L260C

Data set [4] has as its target T4, PEGylated SK Lys 257 Cys (SEQ ID NO 48).
T4 chain: T1 chain with C96D, K257C

Data set [5] addresses T5, PEGylated SK S105C (SEQ ID NO 33).
T5 chain: T1 chain with C96D, S105C

Data set [6] deals with T6, bi-pegylated NC 1-383 (SEQ ID NO 493), Cys at N - 1 and at C + 1 position in SK (1-383, G3).
T6 chain: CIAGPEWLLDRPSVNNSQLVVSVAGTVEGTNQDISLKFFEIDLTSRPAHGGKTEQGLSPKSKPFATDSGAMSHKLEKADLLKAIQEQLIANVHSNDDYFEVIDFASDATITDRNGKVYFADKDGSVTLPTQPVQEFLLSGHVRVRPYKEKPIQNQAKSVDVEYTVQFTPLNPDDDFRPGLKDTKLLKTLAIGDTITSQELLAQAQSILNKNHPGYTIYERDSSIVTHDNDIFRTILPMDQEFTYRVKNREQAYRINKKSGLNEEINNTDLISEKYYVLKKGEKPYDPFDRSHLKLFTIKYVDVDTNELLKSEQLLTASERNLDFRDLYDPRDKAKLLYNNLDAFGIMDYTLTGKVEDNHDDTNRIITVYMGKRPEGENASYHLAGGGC

Changes are numbered by the printed parent chain.

B1: human plasminogen (HPG) (protein)
chain: KVYLSECKTGNGKNYRGTMSKTKNGITCQKWSSTSPHRPRFSPATHPSEGLEENYCRNPDNDPQGPWCYTTDPEKRYDYCDILECEEECMHCSGENYDGKISKTMSGLECQAWDSQSPHAHGYIPSKFPNKNLKKNYCRNPDRELRPWCFTTDPNKRWELCDIPRCTTPPPSSGPTYQCLKGTGENYRGNVAVTVSGHTCQHWSAQTPHTHNRTPENFPCKNLDENYCRNPDGKRAPWCHTTNSQVRWEYCKIPSCDSSPVSTEQLAPTAPPELTPVVQDCYHGDGQSYRGTSSTTTTGKKCQSWSSMTPHRHQKTPENYPNAGLTMNYCRNPDADKGPWCFTTDPSVRWEYCNLKKCSGTEASVVAPPPVVLLPDVETPSEEDCMFGNGKGYRGKRATTVTGTPCQDWAAQEPHRHSIFTPETNPRAGLEKNYCRNPDGDVGGPWCYTTNPRKLYDYCDVPQCAAPSFDCGKPQVEPKKCPGRVVGGCVAHPHSWPWQVSLRTRFGMHFCGGTLISPEWVLTAAHCLEKSPRPSSYKVILGAHQEVNLEPHVQEIEVSRLFLEPTRKDIALLKLSSPAVITDKVIPACLPSPNYVVADRTECFITGWGETQGTFGAGLLKEAQLPVIENKVCNRYEFLNGRVQSTELCAGHLAGGTDSCQGDSGGPLVCFEKDKYILQGVTSWGLGCARPNKPGVYVRVSRFVTWIEGVMRNN
B1: the Km in data set [1] was found to be 0.5 µM; in data set [2], 0.5 µM; in data set [3], 0.6 µM; in data set [4], 0.4 µM; in data set [5] it was 0.5 µM; in data set [6], 0.48 µM.
